B1: mouse Twist1, wildtype [mouse] / mouse E2A [mouse] (parent complex)
chain 1: MMQDVSSSPVSPADDSLSNSEEEPDRQQPASGKRGARKRRSSRRSAGGSAGPGGATGGGIGGGDEPGSPAQGKRGKKSAGGGGGGGAGGGGGGGGGSSSGGGSPQSYEELQTQRVMANVRERQRTQSLNEAFAALRKIIPTLPSDKLSKIQTLKLAARYIDFLYQVLQSDELDSKMASCSYVAHERLSYAFSVWRMEGAWSMSASH
chain 2: MMNQSQRMAPVGSDKELSDLLDFSMMFPLPVANGKSRPASLGGTQFAGSGLEDRPSSGSWGSSDQNSSSFDPSRTYSEGAHFSDSHSSLPPSTFLGAGLGGKGSERNAYATFGRDTSVGTLSQAGFLPGELSLSSPGPLSPSGIKSSSQYYPSFPSNPRRRAADGGLDTQPKKVRKVPPGLPSSVYPPSSGDSYSRDAAAYPSAKTPSSAYPSPFYVADGSLHPSAELWSTPSQVGFGPMLGDGSSPLPLAPGSSSVGSGTFGGLQQQDRMGYQLHGSEVNGSLPAVSSFSAAPGTYSGTSGHTPPVSGAAAESLLGTRGTTASSSGDALGKALASIYSPDHSSNNFSPSPSTPVGSPQGLPGTSQWPRAGAPSALSPNYDAGLHGLSKMEDRLDEAIHVLRSHAVGTASDLHGLLPGHGALTTSFTGPMSLGGRHAGLVGGSHPEEGLTSGASLLHNHASLPSQPSSLPDLSQRPPDSYSGLGRAGTTAGASEIKREEKEDEEIASVADAEEDKKDLKVPRTRTSPDEDEDDLLPPEQKAEREKERRVANNARERLRVRDINEAFKELGRMCQLHLSSEKPQTKLLILHQAVAVILSLEQQVRERNLNPKAACLKRREEEKVSGVVGDPQLALSAAHPGLGEAHNPAGHL

Variants of: B1
Assay: co-immunoprecipitation (Flag-IP), blot quantified by ImageJ; Flag-E2A bait, Twist1-Myc prey; n = 3; parent: 1; read off a plot

In order of falling response:
1. chain 1 F191S  ~1.6 relative expression (/GAPDH)
2. chain 1 A190T  ~0.52 relative expression (/GAPDH)
3. chain 1 S192P  ~0.05 relative expression (/GAPDH)
